The text below walks through data of article PMC11791991 (2024).

Ends that are not written are not given here.

The target of the experiment is T1, LZ-Y.
T1 chain: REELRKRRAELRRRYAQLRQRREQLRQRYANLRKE
As to the kind of experiment: QRET time-resolved luminescence.

KDTLQAETDQLEDEKSALQTEIANLLKEKEKLEFIL (also: nonadentate Eu(III) chelate label, position not given here) [EuLZ (leucine zipper peptide LZ, Eu-chelate labeled)] showed a Kd of 21 nM.
